According to paper PMC11162469, “Discovery of RXFP2 genetic association in resistant hypertensive men and RXFP2 antagonists for the treatment of resistant hypertension” (Scientific Reports, 2024):
One block for each substance: values may come before it.

Experiments:
[1] = target: rat relaxin family peptide receptor 2 (RXFP2) (rat) (UniProt Q5ECL0)
[2] = target: human relaxin family peptide receptor 2 (RXFP2) (human) (UniProt Q8WXD0)
[3] = target: rat relaxin family peptide receptor 2 (RXFP2) (rat) (UniProt Q5ECL0); remark: listed apart in the source
[4] = target: human relaxin family peptide receptor 2 (RXFP2) (human) (UniProt Q8WXD0); remark: listed apart in the source
[5] = target: human relaxin family peptide receptor 2 (RXFP2) (human) (UniProt Q8WXD0); remark: listed apart in the source
[6] = target: rat relaxin family peptide receptor 2 (RXFP2) (rat) (UniProt Q5ECL0); remark: listed apart in the source
[7] = target: human relaxin family peptide receptor 2 (RXFP2) (human) (UniProt Q8WXD0); remark: listed apart in the source
[8] = target: rat RXFP1 (rat) (UniProt Q6R6I6)
rat RXFP1 (rat), sequence (Q6R6I6 whole entry): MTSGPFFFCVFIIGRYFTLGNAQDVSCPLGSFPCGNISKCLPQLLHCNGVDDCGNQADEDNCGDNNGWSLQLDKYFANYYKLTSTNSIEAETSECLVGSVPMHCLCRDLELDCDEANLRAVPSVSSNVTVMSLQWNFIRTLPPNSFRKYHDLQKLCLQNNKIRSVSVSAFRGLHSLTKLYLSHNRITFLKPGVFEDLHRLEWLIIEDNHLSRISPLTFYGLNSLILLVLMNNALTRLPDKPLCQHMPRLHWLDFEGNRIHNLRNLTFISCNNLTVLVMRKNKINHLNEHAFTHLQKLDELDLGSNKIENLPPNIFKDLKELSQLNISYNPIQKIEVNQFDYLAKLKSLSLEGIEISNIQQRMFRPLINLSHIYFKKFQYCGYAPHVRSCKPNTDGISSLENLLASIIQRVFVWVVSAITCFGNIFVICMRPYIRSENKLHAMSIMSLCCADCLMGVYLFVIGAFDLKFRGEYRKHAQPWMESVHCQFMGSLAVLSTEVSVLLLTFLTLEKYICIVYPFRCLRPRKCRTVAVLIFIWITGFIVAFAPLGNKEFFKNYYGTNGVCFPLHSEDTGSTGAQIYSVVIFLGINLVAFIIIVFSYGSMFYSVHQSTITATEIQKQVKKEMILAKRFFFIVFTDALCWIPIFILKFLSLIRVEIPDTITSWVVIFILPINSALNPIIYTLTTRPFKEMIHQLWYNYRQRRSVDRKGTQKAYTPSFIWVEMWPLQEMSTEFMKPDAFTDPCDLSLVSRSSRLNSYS

Human INSL3 (insulin-like peptide 3) (ligand), sequence (P51460 21-131): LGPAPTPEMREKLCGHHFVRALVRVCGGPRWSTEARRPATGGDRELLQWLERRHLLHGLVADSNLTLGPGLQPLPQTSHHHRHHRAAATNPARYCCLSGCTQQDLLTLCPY
human relaxin family peptide receptor 2 (RXFP2) (human), sequence (Q8WXD0 whole entry): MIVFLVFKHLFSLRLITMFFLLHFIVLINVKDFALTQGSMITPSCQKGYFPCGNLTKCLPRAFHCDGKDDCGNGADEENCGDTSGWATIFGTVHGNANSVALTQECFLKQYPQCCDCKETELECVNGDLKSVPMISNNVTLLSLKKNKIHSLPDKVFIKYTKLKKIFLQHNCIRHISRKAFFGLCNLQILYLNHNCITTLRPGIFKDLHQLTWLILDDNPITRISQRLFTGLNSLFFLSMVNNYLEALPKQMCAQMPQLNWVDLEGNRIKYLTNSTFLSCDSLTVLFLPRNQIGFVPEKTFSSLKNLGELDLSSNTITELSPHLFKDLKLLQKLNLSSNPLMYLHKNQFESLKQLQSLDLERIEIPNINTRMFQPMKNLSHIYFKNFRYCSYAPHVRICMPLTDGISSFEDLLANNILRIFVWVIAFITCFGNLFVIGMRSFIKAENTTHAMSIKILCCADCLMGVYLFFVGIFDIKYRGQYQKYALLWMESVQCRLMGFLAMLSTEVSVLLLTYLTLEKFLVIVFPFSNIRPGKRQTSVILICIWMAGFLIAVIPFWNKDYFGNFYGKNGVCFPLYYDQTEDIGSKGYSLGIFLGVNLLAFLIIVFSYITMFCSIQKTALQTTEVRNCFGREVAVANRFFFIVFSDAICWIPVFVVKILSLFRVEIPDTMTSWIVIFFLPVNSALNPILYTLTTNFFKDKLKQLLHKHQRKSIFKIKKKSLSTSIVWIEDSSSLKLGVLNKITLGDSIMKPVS
rat relaxin family peptide receptor 2 (RXFP2) (rat), sequence (Q5ECL0 entry or part of it): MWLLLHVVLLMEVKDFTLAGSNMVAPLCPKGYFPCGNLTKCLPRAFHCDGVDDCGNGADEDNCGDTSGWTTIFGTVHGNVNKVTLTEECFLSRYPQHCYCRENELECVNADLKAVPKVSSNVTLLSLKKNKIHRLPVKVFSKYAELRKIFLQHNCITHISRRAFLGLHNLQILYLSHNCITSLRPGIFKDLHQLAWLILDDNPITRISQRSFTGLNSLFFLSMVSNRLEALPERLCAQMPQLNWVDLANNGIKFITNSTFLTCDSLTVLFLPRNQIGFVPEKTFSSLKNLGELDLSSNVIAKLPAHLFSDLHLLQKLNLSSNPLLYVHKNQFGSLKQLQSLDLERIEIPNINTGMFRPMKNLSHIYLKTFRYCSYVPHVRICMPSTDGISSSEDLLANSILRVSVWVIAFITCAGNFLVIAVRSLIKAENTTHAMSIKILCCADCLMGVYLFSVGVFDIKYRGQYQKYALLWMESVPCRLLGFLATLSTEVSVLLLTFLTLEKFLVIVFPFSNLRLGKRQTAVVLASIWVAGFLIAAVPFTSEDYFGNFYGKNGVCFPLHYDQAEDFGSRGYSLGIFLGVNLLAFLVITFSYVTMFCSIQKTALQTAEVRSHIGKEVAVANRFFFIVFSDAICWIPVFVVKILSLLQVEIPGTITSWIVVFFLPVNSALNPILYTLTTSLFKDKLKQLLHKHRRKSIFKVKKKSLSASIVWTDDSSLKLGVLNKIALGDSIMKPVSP
INSL3 (species not stated for the stable HEK293 cAMP assays) (ligand), sequence (P51460 21-131): as the sequence (P51460 21-131) above
relaxin (H2 Relaxin) (ligand), sequence (P04090 25-185): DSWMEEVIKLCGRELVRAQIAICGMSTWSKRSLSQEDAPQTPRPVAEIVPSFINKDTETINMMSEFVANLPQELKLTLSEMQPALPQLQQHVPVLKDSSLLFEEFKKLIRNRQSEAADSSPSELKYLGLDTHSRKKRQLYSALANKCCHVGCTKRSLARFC

EC50, INSL3-induced cAMP generation in HEK293-rRXFP2 cells (stable) [1]: 8.4 nM
EC50, INSL3-induced cAMP generation in HEK293-hRXFP2 (stable) [2]: 2.9 nM
Substance: INSL3 (species not stated for the stable HEK293 cAMP assays) (ligand)

EC50, INSL3-induced cAMP in HEK293 transiently expressing rat RXFP2 (BacMam) [3]: 13 nM
EC50, INSL3-induced cAMP (HTRF) in HEK293 expressing human RXFP2 (BacMam) [4]: 0.048 nM
EC50, INSL3-induced intracellular calcium (FLIPR) in HEK293 Gα16 cells transiently expressing RXFP2 [5]: 13.4 nM
EC50, CYP11B1 mRNA expression after 48 h in H295R-rRXFP2 [6]: 0.3 nM
EC50, CYP11B2 mRNA expression after 48 h in H295R-rRXFP2 [6]: 0.4 nM
EC50, CYP11B1 mRNA expression after 48 h in H295R-hRXFP2 [7]: 1.3 nM
EC50, CYP11B2 mRNA expression after 48 h in H295R-hRXFP2 [7]: 2 nM
EC50, cAMP generation after 30 min in H295R stably expressing human RXFP2 [7]: 4 nM
Substance: Human INSL3 (insulin-like peptide 3) (ligand)

EC50, relaxin-induced cAMP generation in HEK293-rat RXFP1 (stable) [8]: 29.5 nM
Substance: relaxin (H2 Relaxin) (ligand)
